# Laboratory results taken from patent US9758785B2, “miR-520 microRNAs sensitize cancers to platinum-based therapy” (BAYLOR COLLEGE OF MEDICINE, priority 2012, dated 2017).
# Entries after “also recorded” stand apart in the source; their conditions may differ.
# B1: hsa-mir-520a MI0003149 (nucleic acid, listed as Homo sapiens)
# chain: CUCAGGCUGUGACCCUCCAGAGGGAAGUACUUUCUGUUGUCUGAGAGAAAAGAAAGUGCUUCCCUUUGGACUGUUUCGGUUUGAG
# modifications: expressed or natural sequence
# notes: seed 5'aagugcu; mimic or stably expressed
# Experiments:
# Format in all cases: cell-based, human
# OVCAR8 cells [1] = assay: Viability (MTS) across cisplatin concentrations, stable microRNA clones
# Method: (§1) Established ovarian cancer cell lines were obtained from the ATCC (OVCAR8, OVCAR5) and the University of Texas M.D. Anderson Cancer Center (HEYA8, SKOV3ip1). All cell lines were maintained at 37° C. in RPMI 1640 media (Invitrogen, Carlsbad, Calif.) supplemented with 10% fetal bovine serums (Hyclone, Logan, Utah) and 1% penicillin/streptomycin (Gibco, Carlsbad, Calif.). MicroRNA mimics and mimic controls (Dharmacon, Lafayette, Colo.) were transiently transfected into actively growing cultures using Lipofectamine 2000 (Invitrogen, Carlsbad, Calif.). After a 24-hour incubation, transfected cultures were washed, passaged and seeded into 96 well plates. Proliferation and apoptosis were measured at 72, 96 and 120 hours after transfection using standard assays (Cell Titer 96 Aqueous One; Caspase Glo 3/7; Promega, Madison, Wis.). pLemiR expression vectors (Open Biosystems/Thermo, Huntsville, Ala.) were prepared according to manufacturer's instructions and transfected into cells using Fugene 6 (Roche, Indianapolis, Ind.). Following transfection, stable clones were selected using puromycin (Invitrogen) at doses optimized for each line. Rates of proliferation and apoptosis were examined in stable transfectants 24, 48, 72 and 96 hours after selected cells had been passaged and dispensed into 96 well plates. Viability was assessed across a clinically relevant range of cisplatin concentrations using an MTS assay (Promega). Cisplatin was obtained from Teva Pharmaceuticals (Irvine, Calif.).
# (§2) For this reason, the inventors created clones of OVCAR8 and SKOV3ip1 ovarian cancer cell lines stably expressing either miR-520h (n=3) and miR-520a (n=3). […] To assess the impact of these microRNAs on cisplatin-induced cell killing, the inventors examined the viability of OVCAR8 and SKOV3ip1 cells stably expressing either microRNA incubated with clinically relevant concentrations of cisplatin. […] It should be noted that SKOV3ip1 cells tolerated only very low levels of miR-520a expression. The impact of cisplatin treatment on rates of apoptosis differed dramatically between the two cell lines.
# SKOV3ip1 cells [2] = assay: as above
# Method: as §1, §2
# [3] = test system: established ovarian cancer cell lines; assay: Proliferation or apoptosis in established ovarian cancer cell lines after mimic transfection; details: mimics vs control cultures; cell lines SKOV4, HEY, OVCAR8, OVCAR5
# Method: as §1, with “Rates of proliferation and apoptosis were examined in stable transfectants 24, 48, 72 and 96 hours after selected cells had been passaged and dispensed into 96 well plates.” left out, “Cisplatin was obtained from Teva Pharmaceuticals (Irvine, Calif.).” left out
# OVCAR8 cells [4] = assay: Proliferation assay (MTS, Cell Titer 96 Aqueous One); details: OVCAR8, transient/acute mimic transfection vs non-silencing control, no cisplatin
# Method: as §1
# OVCAR8 cells [5] = assay: Apoptosis assay (Caspase Glo 3/7)
# Method: as §1
# SKOV3ip1 cells [6] = assay: Apoptosis assay (Caspase Glo 3/7)
# Method: as §1
Molecule,IC50 for cisplatinum in control cells (OVCAR8 cells [1]; OVCAR8 cells expressing a non-targeting mimic control) [µg/mL],IC50 for cisplatin in control cells (SKOV3ip1 cells [2]; SKOV3ip1 cells expressing the non-silencing control) [µg/mL],Impact on proliferation or apoptosis [3],Proliferation (OVCAR8 cells [4]),"Sensitization to cisplatin (viability) (OVCAR8 cells [1]; OVCAR8 stable clones vs non-silencing mimic, cisplatin <5 μg/mL)",Sensitization to cisplatin (viability) (SKOV3ip1 cells [2]; SKOV3ip1 stable clones vs non-silencing mimic),"Apoptosis (caspase 3/7) (OVCAR8 cells [5]; OVCAR8, transient/acute mimic transfection vs non-silencing control, no cisplatin)","Apoptosis in presence of cisplatin (OVCAR8 cells [5]; OVCAR8 stable clones, cisplatin up to 10 μg/mL)","Apoptosis (caspase 3/7) (SKOV3ip1 cells [6]; SKOV3ip1, acute mimic transfection, no cisplatin)","Apoptosis in presence of cisplatin (SKOV3ip1 cells [6]; SKOV3ip1 stable clones, cisplatin treatment)"
"N.N.[Cl][Pt][Cl] [cisplatin, reference compound]",1.31,0.43,,,,,,,,
B1,,,impacted proliferation and/or apoptosis in some but not all,decreased proliferation only in OVCAR8 cells,sensitized,appeared to sensitize,decreased rates of apoptosis,significantly decreased; also recorded: significantly lower rates of apoptosis,decreased rates of apoptosis,significantly increased
